These results are taken from patent US20070071759A1.

The experiment concerns the target T1, NKG2D receptor on NK cells freshly isolated from C57BL6 or on KY-2 cells (murine NK cell line) (murine) (UniProt O54709).
T1 sequence (looked up): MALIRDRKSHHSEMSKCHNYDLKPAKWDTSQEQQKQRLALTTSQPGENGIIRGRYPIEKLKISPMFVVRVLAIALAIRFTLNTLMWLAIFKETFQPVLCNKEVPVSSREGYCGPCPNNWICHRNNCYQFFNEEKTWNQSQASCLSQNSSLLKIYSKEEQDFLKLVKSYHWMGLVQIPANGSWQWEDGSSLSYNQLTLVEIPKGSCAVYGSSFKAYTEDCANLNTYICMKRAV
In words: cell-based or functional assay.

Some results are limits rather than exact numbers.

Consider “anti-HER2 IgG3-CH3-Rae-1β fusion protein (from UniProt P01860 1-377; O08603 29-229)”, for which the NK cell-mediated killing (direct lysis, KY-2 effector cells) is 15 to 59% and the redirected lysis of P815 or J774 cells by KY-2 cells was under 22%.
